According to publication PMC12403569, “The regulatory network of Coprinopsis cinerea transcription factor Skn7 collaborates with bHLH1 during fungal-fungal interactions”:

These binders were tested against T1, Skn7 DBD (Coprinopsis cinerea, UniProt A8PG35 214-443) (assay: EMSA; poly d(I-C); 25 mM HEPES, 4 mM DTT, 100 mM KCl, 2 mM MgCl2, 10% glycerol, 0.01 mg/mL BSA, pH 7.3; 200 ng probe, 200 ng poly d(I-C), 20 µL; temperature not stated). Conditions: protein: recombinant; tags: His-SUMO, removed with Ulp1; label: 5'-6-carboxyfluorescein.
T1 sequence: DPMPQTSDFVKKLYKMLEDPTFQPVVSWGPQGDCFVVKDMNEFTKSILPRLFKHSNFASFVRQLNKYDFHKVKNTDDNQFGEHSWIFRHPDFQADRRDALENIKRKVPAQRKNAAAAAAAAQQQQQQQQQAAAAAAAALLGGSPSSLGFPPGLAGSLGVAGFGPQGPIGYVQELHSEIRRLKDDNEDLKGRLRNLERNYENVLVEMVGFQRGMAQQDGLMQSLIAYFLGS

Binder	binding result
gst promoter probe (dsDNA) DNA 1: GATGTGTCGACGTCTGA DNA 2: TCAGACGTCGACACATC	binds
sod2 promoter probe (dsDNA) DNA 1: AGAAGGATCTAGAGACTCGG DNA 2: CCGAGTCTCTAGATCCTTCT	binds
lcc9 promoter probe (dsDNA) DNA 1: CATTCTGTCTAGAAT DNA 2: ATTCTAGACAGAATG	binds
easA promoter probe (dsDNA) DNA 1: TGGTGGACAAGTTTCCGT DNA 2: ACGGAAACTTGTCCACCA	binds
nrps promoter probe (dsDNA) DNA 1: TAACCATGTCCAACTCTAAT DNA 2: ATTAGAGTTGGACATGGTTA	binds

The binders below were run against T2, truncated bHLH1 (Coprinopsis cinerea, UniProt A8P5K0 311-490) (assay: EMSA; 25 mM HEPES, 4 mM DTT, 100 mM KCl, 2 mM MgCl2, 10% glycerol, 0.01 mg/mL BSA, pH 7.3; 200 ng probe, 200 ng poly d(I-C), 20 µL; temperature not stated). Conditions: protein: recombinant; tags: His; chain copies: 2.
T2 sequence: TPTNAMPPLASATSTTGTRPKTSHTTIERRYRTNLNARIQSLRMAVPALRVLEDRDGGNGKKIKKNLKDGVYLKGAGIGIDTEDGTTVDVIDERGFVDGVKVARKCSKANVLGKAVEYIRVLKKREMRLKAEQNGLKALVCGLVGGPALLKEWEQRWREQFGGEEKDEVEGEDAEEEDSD

Binder	binding result
lcc9 promoter probe for bHLH1 (dsDNA) DNA 1: ATTCATTCTGTCTAGAATGGG DNA 2: CCCATTCTAGACAGAATGAAT	binds
